From publication PMC2711566

B1: recombinant TIP47, O60664 1-434 (natural protein)
chain: MSADGAEADGSTQVTVEEPVQQPSVVDRVASMPLISSTCDMVSAAYASTKESYPHIKTVCDAAEKGVRTLTAAAVSGAQPILSKLEPQIASASEYAHRGLDKLEENLPILQQPTEKVLADTKELVSSKVSGAQEMVSSAKDTVATQLSEAVDATRGAVQSGVDKTKSVVTGGVQSVMGSRLGQMVLSGVDTVLGKSEEWADNHLPLTDAELARIATSLDGFDVASVQQQRQEQSYFVRLGSLSERLRQHAYEHSLGKLRATKQRAQEALLQLSQVLSLMETVKQGVDQKLVEGQEKLHQMWLSWNQKQLQGPEKEPPKPEQVESRALTMFRDIAQQLQATCTSLGSSIQGLPTNVKDQVQQARRQVEDLQATFSSIHSFQDLSSSILAQSRERVASAREALDHMVEYVAQNTPVTWLVGPFAPGITEKAPEEKK

Tests used:
GST = experiment: native gel or EMSA
[1] = molecular target: T1, recombinant TIP47 (human), O60664; experiment: SEC; conditions: remark: other sources report otherwise
T1 chain: B1 chain

Molecule	stoichiometry N (GST)	stoichiometry N [1]
GST (natural protein)	2	–
B1	–	3
